Assay results: US20080268015A1 (AFFINERGY, published 2008)
Primed or numbered codes have the meaning given here. Where no end group is shown, it is not given here. [ ]: non-standard residue; d: D form. PEG10′ = non-peptide PEG10 spacer

Target: BMP2 (Bone Morphogenetic Protein 2) (UniProt P12643 283-396)
Experiment: ELISA: composition (10 uM) pre-bound to DBM, serial dilutions of BMP-2, detected with anti-BMP-2 antibody
Method: A binding assay was performed using ELISA; and the resultant absorbance observed across the concentration range of pharmaceutically active agent yielded a binding curve and rough dissociation constant of the composition which were used to calculate an EC50. Appropriate controls, including absence of the composition, were included in the assay.
As a specific example, DBM was placed in a microtiter plate at a concentration of 3 mg equivalents per well, and then the wells and DBM were blocked with buffer containing 1% BSA for 1 hour at room temperature. The buffer containing 1% BSA was then aspirated from each well, and added to each of the wells was 100 μl of buffer containing 10 μM of the respective composition embodiments. The microtiter plates were incubated for 1 hour at room temperature on a plate shaker. The DBM was then allowed to settle, and the buffer was then aspirated from the wells. The DBM was washed three times with buffer-T, and then serial dilutions of BMP-2 were added to the wells in 100 μl of buffer. The microtiter plates were then incubated for 1 hour at room temperature on a plate shaker. The DBM, having composition bound thereto, was then allowed to settle, and then buffer was aspirated from the wells. The DBM-composition combination was washed three times with buffer-T. Commercial murine anti-BMP-2 antibody was diluted 1:1000 in buffer containing 1% BSA, and 100 μl was added per well. The plates were incubated for 30 minutes at room temperature on a plate shaker, and then the wash step was repeated. Commercial anti-mouse antibody labeled with alkaline phosphatase was diluted 1:1000 in buffer containing 1% BSA, and 100 μl was added per well. The plates were incubated for 30 minutes at room temperature on a plate shaker, and then the wash step was repeated. Added to each well was 200 μl of substrate pNPP, and the plates were incubated at room temperature on a plate shaker to develop the assay. 100 μl of solution was removed from each well and added to a respective well of a new microtiter plate which was then read on a spectrophotometer and the absorbance was recorded at 405 nm. An estimate of the relative affinity, binding specificity, EC50 of the composition for pharmaceutically active agent can be made by determining the concentration of peptide that provides one-half the maximal signal in the assay.

Chain of BMP2 (Bone Morphogenetic Protein 2) (P12643 283-396 limits assumed): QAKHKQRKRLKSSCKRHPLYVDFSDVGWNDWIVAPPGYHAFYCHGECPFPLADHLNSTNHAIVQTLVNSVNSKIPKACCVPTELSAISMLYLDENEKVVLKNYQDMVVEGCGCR

SWWGFWNGSAAPVWSRGSSGAGALGFPLKGEVVEGWAGSSGK (also: biotin linked to C-terminal GSSGK linker, site not given here)
EC50: < 10 nM

SFGSWWWGSGAASSRGSSGGGALGFPLKGEVVEGWAGSSGK (also: biotin linked to C-terminal GSSGK linker, site not given here)
EC50: < 10 nM

SFGSWWWGSGAASSRG[PEG10′]GGGAWEAFSSLSGSRVGSSGK (also: C-terminal amino linker biotinylated)
EC50: < 10 nM

SWWGFWNGSAAPVWSRGSSESAGAWEAFSSLSGSRVGSSGK (also: biotin linked to C-terminal GSSGK linker, site not given here)
EC50: < 10 nM

SWWGFWNGSAAPVWSRGSSGAGAWEAFSSLSGSRVGSSGK (also: biotin linked to C-terminal GSSGK linker, site not given here)
EC50: < 10 nM

SFGSWWWGSGAASSRG[PEG10′]AGAWEAFSSLSGSRVGSSGK (also: C-terminal amino linker biotinylated)
EC50: < 10 nM
